According to patent US20250361322A1 (ICONIC THERAPEUTICS, published 2025):

B1: 43B1 (antibody, IgG1, V domains shown)
VH: QVQLQESGPGLVKPSQTLSLTCTVSGGSISSGQYWSWIRQHPGKGLEWIGEIYYSGSTRYNPSLKSRVTISVDTSKNQFSLKLSSVTAADTAVYYCARDAPYYYGGGYYYYMDVWGKGTTVTVSS
VL: EIVLTQSPGTLSLSPGERATLSCRASESVDSSYLAWYQQKPGQAPRLLIYGASTRQTGIPDRFSGSGSGTDFTLTISRLEPEDFAVYYCQQAGVVPYTFGGGTKVEIK
B2: anti-TF antibody 43B1 (antibody, human IgG1, V domains shown)
VH: QVQLQESGPGLVKPSQTLSLTCTVSGGSISSGQYWSWIRQHPGKGLEWIGEIYYSGSTRYNPSLKSRVTISVDTSKNQFSLKLSSVTAADTAVYYCARDAPYYYGGGYYYYMDVWGKGTTVTVSS
VL: EIVLTQSPGTLSLSPGERATLSCRASESVDSSYLAWYQQKPGQAPRLLIYGASTRQTGIPDRFSGSGSGTDFTLTISRLEPEDFAVYYCQQAGVVPYTFGGGTKVEIK
B3: anti-TF antibody 43Ea (antibody, human IgG1, V domains shown)
VH: QVQLQESGPGLVKPSQTLSLTCTVSGGSISSGQYWSWIRQHPGKGLEWIGEIYYSGSTRYNPSLKSRVTISVDTSKNQFSLKLSSVTAADTAVYYCARDTPYYYDGGYYYYMDVWGKGTTVTVSS
VL: EIVLTQSPGTLSLSPGERATLSCRASQSVSSSYLAWYQQKPGQAPRLLIYGASSRATGIPDRFSGSGSGTDFTLTISRLEPEDFAVYYCQQVGVVPYTFGGGTKVEIK
B4: anti-TF antibody 54E (antibody, human IgG1, V domains shown)
VH: QVQLVQSGAEVKKPGASVKVSCKASGYTFANYYMHWVRQAPGQGLEWMGIINPSGGITVYAQKFQGRVTMTRDTSTSTVYMELSSLRSEDTAVYYCARGGSKVAALAFDIWGQGTMVTVSS
VL: DIQMTQSPSSLSASVGDRVTITCQASQDISNSLNWYQQKPGKAPKLLIYDASNLETGVPSRFSGSRSGTDFTFTISSLQPEDIATYYCQQYNFHPLTFGGGTKVEIK
B5: anti-TF antibody 1F (antibody, human IgG1, V domains shown)
VH: EVQLLESGGGLVQPGGSLRLSCAASGFTFSDYAMGWVRQAPGKGLEWVSTISGSGGLTYYADSVKGRFTISRDNSKNTLYLQMNSLRAEDTAVYYCAKAPYGYYMDVWGKGTTVTVSS
VL: not shown

What was measured:
Assay in all cases: cell-based or functional assay
Relipidated TF [1] = target: Relipidated TF (UniProt P13726 33-295, limits assumed)
[2] = target: human Tissue Factor (hTF) (human, UniProt P13726 33-295)
Relipidated TF [3] = target: Relipidated TF

Row | Binder | IC50, cell viability of A431 cells, Secondary ADC (antibody with anti-human Fc Fab:MMAF), Continuous (FIG. 18B) [2] [nM] | % ETP, TGA with 10 min antibody pre-incubation, 10 nM antibody (Relipidated TF [3]) [%] | % Peak IIa, TGA with 10 min antibody pre-incubation, 10 nM antibody (Relipidated TF [3]) [%] | % Peak IIa, TGA with 10 min antibody pre-incubation, 50 nM antibody (Relipidated TF [3]) [%] | % Peak IIa, TGA with 10 min antibody pre-incubation, 100 nM antibody (Relipidated TF [3]) [%] | % ttPeak, TGA with 10 min antibody pre-incubation, 10 nM antibody (Relipidated TF [3]) [%] | % ttPeak, TGA with 10 min antibody pre-incubation, 50 nM antibody (Relipidated TF [3]) [%] | ETP, TGA with 10 min antibody pre-incubation, 10 nM antibody (Relipidated TF [3]) [nM·min] | Lag Time, TGA with 10 min antibody pre-incubation, 10 nM antibody (Relipidated TF [3]) [min] | Lag Time, TGA with 10 min antibody pre-incubation, 50 nM antibody (Relipidated TF [3]) [min] | Lag Time, TGA with 10 min antibody pre-incubation, 100 nM antibody (Relipidated TF [3]) [min] | Peak IIa, TGA with 10 min antibody pre-incubation, 10 nM antibody (Relipidated TF [3]) [nM] | Peak IIa, TGA with 10 min antibody pre-incubation, 50 nM antibody (Relipidated TF [3]) [nM] | Peak IIa, TGA with 10 min antibody pre-incubation, 100 nM antibody (Relipidated TF [3]) [nM] | ttPeak, TGA with 10 min antibody pre-incubation, 10 nM antibody (Relipidated TF [3]) [min] | ttPeak, TGA with 10 min antibody pre-incubation, 50 nM antibody (Relipidated TF [3]) [min] | ttPeak, TGA with 10 min antibody pre-incubation, 100 nM antibody (Relipidated TF [3]) [min] | also measured
1 | B1 | – | – | – | – | – | – | – | – | – | – | – | – | – | – | – | – | – | % Peak IIa, Ab conc. 10 nM (Relipidated TF [1]): 89%; % Peak IIa, Ab conc. 50 nM (Relipidated TF [1]): 72%; % ttPeak, Ab conc. 10 nM (Relipidated TF [1]): 9%; % ttPeak, Ab conc. 50 nM (Relipidated TF [1]): 29%; % ttPeak, Ab conc. 100 nM (Relipidated TF [1]): 37%
2 | B2 | 0.12 | – | – | – | – | – | – | – | – | – | – | – | – | – | – | – | – | –
3 | B3 | 0.13 | – | – | – | – | – | – | – | – | – | – | – | – | – | – | – | – | –
4 | B4 | 0.11 | 83 | 43 | 16 | 13 | 96 | 303 | 1520 | 6.5 | 18.3 | 22.3 | 121 | 44 | 37 | 13.7 | 28.2 | 33 | –
5 | B5 | 0.07 | 41 | 16 | 8 | 7 | 220 | 433 | 742 | 13.8 | 26.5 | 29.5 | 44 | 23 | 20 | 22.4 | 37.3 | 40.8 | % ttPeak, TGA with 10 min antibody pre-incubation, 100 nM antibody (Relipidated TF [3]): 483%
